Values belong to the substance of their own block, whether it stands above or below them.
Assays:
[1] = target: αβ-tubulin heterodimer
[2] = target: αβ-tubulin heterodimer; remark: listed apart in the source
[3] = target: αβ-tubulin heterodimer; assay: SEC-MALS; KW803 (Shodex) column, 20 mM Pipes pH 6.8, 10 μM AMPPNP; 30 μl at about 3 mg/ml tubulin–Kif2C–DARPin complexes, 0.5 ml/min

Substance: Kif2C-(sN+M) R540A (from UniProt Q99661 216-598) (domain or fragment)
microtubule depolymerase activity (turbidity, percent of wild-type Kif2C-(sN+M)) [1]: 5.5%

Substance: Kif2C-(sN+M) (short neck+motor construct of human Kif2C/MCAK) (from UniProt Q99661 216-598) (domain or fragment)
microtubule-stimulated ATPase, K mMT; tubulin as Taxotere-stabilized microtubules [1]: 1.1 µM

Substance: Kif2C-(sN+M)-(G4S)3-DARPin (Kif2C-(sN+M) linked to the D1 DARPin by a (G4S)3 peptide) (from UniProt Q99661 216-598)
stoichiometry N (tubulin:construct) [3]: 1

Now from value to substance:

microtubule-stimulated ATPase, K mMT; tubulin as Taxotere-stabilized microtubules [1]: 17 µM
Substance: Kif2C-(sN+M) R510A (from UniProt Q99661 216-598) (domain or fragment)

microtubule-stimulated ATPase, apparent K m (K mMT); tubulin as Taxotere-stabilized microtubules [2]: 20 µM | tubulin-stimulated ATPase, apparent Michaelis–Menten constant [2]: 0.5 µM | tubulin-stimulated ATPase, k cat [2]: 0.1 s⁻¹
Substance: Kif2C-(sN+M)-(G4S)4-GGS-DARPin (Kif2C-(sN+M) fused to the A-C2 DARPin) (from UniProt Q99661 216-598)

microtubule depolymerase activity (turbidity, percent of wild-type Kif2C-(sN+M)) [1]: 5.7% | microtubule-stimulated ATPase, k cat; tubulin as Taxotere-stabilized microtubules [1]: 0.33 s⁻¹
Substance: Kif2C-(sN+M) R420S (from UniProt Q99661 216-598) (domain or fragment)
